Here are results for six molecules from patent US10005846 (LIFEARC, dated 2018).

Substitutions are numbered along the chain they refer to.

T1: human transglutaminase type 2 (TG2) (human, UniProt P21980 1-687)
T1 sequence: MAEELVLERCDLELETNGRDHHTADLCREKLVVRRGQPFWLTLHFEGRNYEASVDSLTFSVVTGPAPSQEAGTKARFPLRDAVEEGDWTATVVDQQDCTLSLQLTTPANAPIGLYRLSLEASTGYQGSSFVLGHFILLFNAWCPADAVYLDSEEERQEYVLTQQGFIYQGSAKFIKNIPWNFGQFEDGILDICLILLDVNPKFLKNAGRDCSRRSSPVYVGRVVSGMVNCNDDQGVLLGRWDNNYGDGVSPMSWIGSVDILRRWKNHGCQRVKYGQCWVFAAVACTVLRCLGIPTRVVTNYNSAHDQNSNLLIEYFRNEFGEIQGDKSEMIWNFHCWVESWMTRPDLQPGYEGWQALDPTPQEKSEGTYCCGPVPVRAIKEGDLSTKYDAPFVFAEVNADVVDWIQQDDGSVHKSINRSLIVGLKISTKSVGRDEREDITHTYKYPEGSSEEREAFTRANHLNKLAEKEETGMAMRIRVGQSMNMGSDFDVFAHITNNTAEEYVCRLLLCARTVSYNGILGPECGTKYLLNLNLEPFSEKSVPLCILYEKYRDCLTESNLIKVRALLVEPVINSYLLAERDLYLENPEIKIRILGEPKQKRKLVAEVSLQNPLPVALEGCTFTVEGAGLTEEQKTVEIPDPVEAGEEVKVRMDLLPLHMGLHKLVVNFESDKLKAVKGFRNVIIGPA

T2: cynomolgus monkey TG2 (cynomolgus monkey, UniProt A0A2K5VXI8 1-687)
T2 construct: Bought recombinant protein; also called cynomogulus monkey TG2; cyano TG2
T2 sequence: T1 sequence with E4D, Q157R, N177S, H413S, I421T, Y528H, V542I

B1: AB1 murine monoclonal antibody (antibody, V domains shown)
VH: EVQLVESGGGLVKPGGSLKLSCAASGFTLSSSAMSWVRQTPDRRLEWVATISVGGGKTYYPDSVKGRFTISRDNAKNTLYLQMNSLRSEDTAMYYCAKLISLYWGQGTTLTVSS
VL: DIKMTQSPSSMYASLGERVTITCKASQDINSYLTWFQQKPGKSPKTLIYRTNRLFDGVPSRFSGSGSGQDFFLTISSLEYEDMGIYYCLQYDDFPYTFGGGTKLEIK
notes: Mouse hybridoma IgG; heavy chain amplified with constant region primer MHCG1, kappa light chain; also called mAB003
B2: DC1 murine monoclonal antibody (antibody, V domains shown)
VH: EVQLVESGGGLVKPGGSLKLSCAASGFTLSTHAMSWVRQTPEKRLEWVATISSGGRSTYYPDSVKGRFTISRDNVKNTLYLQLSSLRSEDTAVYFCARLISTYWGQGTTLTVSS
VL: B1 VL with K3T, M11I, T46I, R50L, T51V, F55V, F71Y, F72A
notes: Mouse hybridoma IgG; heavy chain amplified with primer MHCG1, kappa light chain; also called mDC001
B3: JE12 murine monoclonal antibody (antibody, V domains shown)
VH: EVQLQQSGPELVKPGASVKMSCKASGYRFTSYVMHWVKQKSGQGLEWIGYINPYNDGAKYNEKFKGKATLTSDKSSSTAYMELSSLTSEDSAVYYCARLSSDYWGQGTTLTVSS
VL: DVLMTQNPLSLPVSLGDQASISCRSSQSIEHINGNTYLEWYLQKPGQSPKFLIYKVSNRFSGVPDRFSGSGSGTDFTLRISRVEAEDLGIYYCFQGSHVPFTFGGGTKLEIK
notes: Mouse hybridoma IgG; heavy chain amplified with primer MHCG1, kappa light chain
B4: cBB001 chimeric antibody (murine BB7 variable regions) (antibody, human IgG1, V domains shown)
VH: AVQLVESGGGLVKPGGSLKLSCAASGIIFSSSAMSWVRQTPEKRLEWVATISSGGRSTYYPDSVKGRFTVSRDSAKNTLYLQMDSLRSEDTAIYYCAKLISPYWGQGTTLTVSS
VL: B1 VL with D1A, T20I, R50L, F55M, D70E, F72L, S77G, Y80H, D92V
notes: also called chimeric BB7
B5: cDH001 chimeric antibody (murine DH2 variable regions) (antibody, human IgG1, V domains shown)
VH: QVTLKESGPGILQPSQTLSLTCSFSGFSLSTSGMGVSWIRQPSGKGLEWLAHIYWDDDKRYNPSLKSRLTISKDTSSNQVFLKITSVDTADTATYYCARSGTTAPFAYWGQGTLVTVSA
VL: QIVLTQSPAIMSASPGEKVTMTCSASSSVSYMYWYQQKPGSSPRLLIYDTSNLASGVPVRFSGSGSGTSYSLTISRMEAEDAATFYCQQWSSSPLTFGAGTKLELK
B6: cDD9001 chimeric antibody (murine DD9 variable regions) (antibody, human IgG1, V domains shown)
VH: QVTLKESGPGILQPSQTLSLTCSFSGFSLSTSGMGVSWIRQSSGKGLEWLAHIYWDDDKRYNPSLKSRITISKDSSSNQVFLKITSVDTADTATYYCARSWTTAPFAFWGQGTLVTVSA
VL: B5 VL with S30D, E78G, F85Y, S91N

One test deals with T1, human transglutaminase type 2 (TG2). Briefly: cell-based or functional assay.
As for B1, the “IC50, 3H-putrescine incorporation assay” value was 1.1e-05 mg/ml of IgG (to inhibit 1 ng of TG2).

Consider B2, for which the “IC50, 3H-putrescine incorporation assay” value is 1.1e-05 mg/ml IgG per ng of recombinant TG2.

Consider B3, for which the “IC50, 3H-putrescine incorporation assay” value was 0.000123 mg/ml of IgG (to inhibit 1 ng of TG2).

The target in another test is T2, cynomolgus monkey TG2. Kind of test: SPR (Biacore T200), antibody captured on anti-human IgG1 Fc chip, TG2 injected; +Ca2+. The method, then:
(§1) Recombinant cynomolgus monkey TG2 was obtained from Trenzyme. Surface plasmon resonance (SPR) was measured on a Biacore T200 instrument (GE Healthcare). CM5 chips (GE Healthcare cat. no.: BR-1006-68) were coated with monoclonal mouse anti-human IgG1 (Fc) (MAH) antibody (GE Healthcare cat. no.: BR-1008-39) by amine-coupling as described in the manufacturers instructions. HBS-EP+ buffer (0.01 M HEPES, 0.15 M NaCl, 3 mM EDTA, 0.05% v/v Surfactant P20) and HBS-P+ buffer (0.01 M HEPES, 0.15 M NaCl, 0.05% Surfactant P20) were purchased from GE Healthcare as 10× stocks (cat. nos.: BR-1006-69 and BR-1006-71). Calcium Chloride solution was obtained from Sigma Aldrich (cat. no.:21115).
(§2) The method employed to determine the affinity of the anti-TG2 antibodies involved the capture of the chimeric or humanised antibodies on a MAH coated CM5 chip, followed by the injection of a series of TG2 samples in running buffer. The running buffer was 1×HBS-P+ containing 1 mM CaCl_2, or 1×HBS-EP+ for calcium-free experiments. Antibody capture was carried out for a contact time of 120 seconds at a flow rate of 10 μl/min resulting in the capture of approximately 40-80 RU. TG2 was injected over the immobilised antibody at concentrations ranging from 25 nM to 400 nM with a contact time up to 600 seconds at a flow rate of 30 μl/min. Dissociation of TG2 was typically measured for up to 5400 seconds (1.5 hours). Regeneration of the chip was then performed using 3 M MgCl_2, for a contact time of 60 seconds at a flow rate of […], followed by a 300 s stabilisation period before the next sample. For each of human and cynomolgus monkey TG2, at least 5 injections at a variety of concentrations were performed in at least two separate experiments.
(§3) Kinetic data were exported from the Biacore T200 Evaluation Software and analysed using GraphPad Prism, where the association phases and dissociation phases were analysed separately using a one phase association model and one-phase exponential decay model respectively. Association rates ($kon$) were calculated for each curve individually, and dissociation rates ($koff$) values from the long dissociation phase data collected. Where $koff$ values were calculated to be $<1\times10^-5$ s^-1, values were set at 1×10^-5 for analysis, as rates slower than this could not be estimated accurately.
On the technique in general: SPR reads the build-up and loss of mass on a sensor chip optically.
As usually defined, the Kd is the equilibrium constant for the complex coming apart. The koff is a measure of how fast the partners let go of each other. By kon is commonly meant the rate constant with which the complex forms. Regarding B4, the Kd was below 30 pM, the koff was below 1e-05 s⁻¹ and the kon was 290000 M⁻¹ s⁻¹.

Molecule B5 had a dissociation constant (Kd) below 700 pM, a koff below 1e-05 s⁻¹ and a kon of 15000 M⁻¹ s⁻¹.

On to B6, for which the Kd is 520 pM, the koff stood at 1.6e-05 s⁻¹ and the kon came to 31000 M⁻¹ s⁻¹.

The target of the next test is T1, human transglutaminase type 2 (TG2). Described as above. How it is done:
as §1, §2, §3
Consider B4, for which the Kd is below 50 pM, the koff is below 1e-05 s⁻¹ and the kon came to 210000 M⁻¹ s⁻¹.

For the molecule B5, binding was put at a Kd of 640 pM, the koff was 1.8e-05 s⁻¹ and the kon worked out at 28000 M⁻¹ s⁻¹.

In turn, B6 yielded a Kd of 430 pM, a koff of 1.3e-05 s⁻¹ and a kon of 30000 M⁻¹ s⁻¹.

The target in another test is T2, cynomolgus monkey TG2. Briefly: SPR (Biacore T200), antibody captured on anti-human IgG1 Fc chip, TG2 injected; -Ca2+. How it is done: as §1, §2, §3
With B4, the Kd was below 50 pM, the koff is below 1e-05 s⁻¹ and the kon was 190000 M⁻¹ s⁻¹.

For the molecule B5, the Kd came out at 2400 pM, the koff was found to be 6.3e-05 s⁻¹ and the kon turned out to be 26000 M⁻¹ s⁻¹.

B6 yielded a Kd of 890 pM, a koff of 4.1e-05 s⁻¹ and a kon of 46000 M⁻¹ s⁻¹.

In a further test the target is T1, human transglutaminase type 2 (TG2). Described as above. The method, then:
as §1, §2, §3
B4 displayed a Kd below 70 pM, a koff below 1e-05 s⁻¹ and an association rate constant (kon) of 150000 M⁻¹ s⁻¹.

Take B5: the Kd came out at 23000 pM, the koff was determined as 0.00049 s⁻¹ and the kon came out at 21000 M⁻¹ s⁻¹.

In turn, B6 showed a Kd of 3100 pM, a koff of 7.1e-05 s⁻¹ and a kon of 23000 M⁻¹ s⁻¹.
